# Test results: patent US20260028391A1
# Several values for one entry are separate records, joined by “and”; a condition that tells them apart may be missing. Equal values may be shown once.
# Key:
# [1] = biological target: MPV fusion glycoprotein MPV-F N280 (metapneumovirus (strain not stated)); assay: SPR; sensors loaded with F protein, mAb in solution
# [2] = biological target: MPV fusion glycoprotein MPV-F D280 (metapneumovirus (strain not stated)); assay: as above
# [3] = biological target: MPV fusion glycoprotein with the D280N mutation (MPV-F N280), recombinant protein loaded on sensors (metapneumovirus (MPV), strain not stated); assay: same manner as Experiment 1, RUN10, MPV-F D280 or MPV-F N280 on the sensors (Example 6, Experiment 3)
# [4] = biological target: MPV fusion glycoprotein MPV-F N280 (metapneumovirus (strain not stated)); assay: SPR; sensors loaded with MPV-F, mAb in solution (Experiment 3)
# [5] = biological target: MPV fusion glycoprotein MPV-F D280 (metapneumovirus (strain not stated)); assay: as above
# [6] = biological target: fusion glycoprotein of the MPV D280 used in the neutralization assay of Example 3 (metapneumovirus (strain not stated)); assay: cell-based or functional assay
# [7] = biological target: fusion glycoprotein of Human metapneumovirus-TN/96-213 (BEI NR-22243) (human metapneumovirus TN/96-213); assay: cell-based or functional assay
# [8] = biological target: fusion glycoprotein of Human Metapneumovirus-GFP CAN97-83 (Vira Tree M121) (human metapneumovirus CAN97-83) (UniProt Q6WB98); assay: cell-based or functional assay
# [9] = biological target: biot-MPV-F D280N (metapneumovirus (MPV)); assay: BLI (Octet), biotinylated F on SA sensors, mAb 5 µg/ml; batch KYT
# [10] = biological target: biot-MPV-F wt (metapneumovirus (MPV)); assay: as above
# [11] = biological target: biot-RSV-F wt (respiratory syncytial virus (RSV)); assay: as above
# [12] = biological target: biot-MPV-F D280N (metapneumovirus (MPV)); assay: BLI (Octet), biotinylated F on SA sensors, mAb 5 µg/ml; forced deamidation sample, day 0
# [13] = biological target: biot-MPV-F wt (metapneumovirus (MPV)); assay: as above
# [14] = biological target: biot-RSV-F wt (respiratory syncytial virus (RSV)); assay: as above
# [15] = biological target: biot-MPV-F D280N (metapneumovirus (MPV)); assay: BLI, SA sensor loaded with biot-MPV-F D280N (sheet title 'MPV-G D280N'), mAb 5 ug/ml, 4 min association, 6 min dissociation
# [16] = biological target: biot-MPV-F wt (metapneumovirus (MPV)); assay: BLI, SA sensor loaded with biot-MPV-F wt, mAb 5 ug/ml, 4 min association, 6 min dissociation
# [17] = biological target: biot-MPV-F D280N (metapneumovirus (MPV)); assay: BLI (Octet), biotinylated F on SA sensors, mAb 5 µg/ml; forced deamidation sample, day 7 at 40 °C
# [18] = biological target: biot-MPV-F wt (metapneumovirus (MPV)); assay: as above
# [19] = biological target: biot-RSV-F wt (respiratory syncytial virus (RSV)); assay: as above
# [20] = biological target: biot-RSV-F wt (respiratory syncytial virus (RSV)); assay: BLI, SA sensor loaded with biot-RSV-F wt, mAb 5 ug/ml, 4 min association, 6 min dissociation
# [21] = biological target: biot-MPV-F D280N (metapneumovirus (MPV)); assay: BLI (Octet), biotinylated F on SA sensors, mAb 5 µg/ml; forced deamidation sample, day 13 at 40 °C
# [22] = biological target: biot-MPV-F wt (metapneumovirus (MPV)); assay: as above
# [23] = biological target: biot-RSV-F wt (respiratory syncytial virus (RSV)); assay: as above
# [24] = biological target: RSV F A N208Y-N671I (RSV A, strain A2) (UniProt P03420); assay: FACS, % binding to RSV F A variants
# [25] = biological target: RSV F A S433P (RSV A, strain A2) (UniProt P03420); assay: FACS, % binding to RSV F A variants
# [26] = biological target: RSV F A S433P-G446E (RSV A, strain A2) (UniProt P03420); assay: FACS, % binding to RSV F A variants
binder,measurement,setting,value
"MPK15 (antibody, human IgG1, V domains shown) VH: EVQLVESGGGLVKPGGSLRLSCTVSGITFSDAWMTWVRQAPGKGLEWVGRIKRKVDGETADYAPSVKGRFTISRDDSKSTLYLQMNSLKTEDTGLYYCLTTWSDQFWGQGTLVTVSS VL: QSVVTQEPSLTVSPGGTVTLTCDSSSGAVTRGHYPFWFQQKPGQVPRTLIYDTSKKHSWTPARFSGSLLGDKAVLTLSGAQPEDEADYYCLLTYSGVRVFGGGTKLTVL",Kd,[1],57.4 pM
same,Kd,[2],78.4 pM
same,Kd,[3],73 pM
same,Kd,[4],72 pM
same,Kd,[5],71 pM
same,MPV D280 Neutralization - IC50,[6],3.81 ng/mL and 3.4 ng/mL
same,MPV D280 Neutralization by MPK15,[7],15.3
same,MPV D280 Neutralization by MPK15,[8],5.8
"MPK190-rIgG1-LS (antibody, V domains shown) VH: EVQLVESGGGLVKPGGSLTLSCAASGFSISGYGMNWVRQAPGRGLEWVASISASSTYIYYADSMKGRFTISRDNGKTSLYLQMKSLRAEDTAVYYCARAPIEPPYFDLWGRGTLVTVSS VL: QSVLTQPPSVSGAPGQRVTISCTGSNSNIGAGYDVHWYQHLPGKAPKVLIYGNNNRPSVVPDRFSGSNSGASASLAISGLQAEDEADYFCQSYDRRLSGPIFGGGTKLTVL",Kd,[9],370 pM
same,Kd,[10],< 1 pM
same,Kd,[11],53.9 pM
same,Kd,[12],441 pM
same,Kd,[13],< 1 pM
same,Kd,[14],< 1 pM
same,Kd,[15],381 pM
same,Kd,[16],< 1 pM
same,Kd,[17],600 pM
same,Kd,[18],15.9 pM
same,Kd,[19],128 pM
same,Kd,[20],< 1 pM
same,Kd,[21],733 pM
same,Kd,[22],57.7 pM
same,Kd,[23],304 pM
"MPK65-v2-v1.2 (antibody, V domains shown) VH: QVPLVQSGAEVKKPGESLKISCKGSGYSFINYWIGWVRQMPGKGLEWMGVIYPFDSDTKYSPSFQGHVTISADKSSNTAYVQWSSLKASDTAMYYCARFTFGIAVVTDDVSGEGQAFEIWGQGTMVTVSS VL: QIVMMQSPATLSVSPGERATLSCRASQSVAGNLAWYQQRPGQAPRLLIYGASTRATGVPARFSGSGSETEFTLTISSLQSEDFAVYYCHQYSNLPQAFGQGTRLDIK",% binding,[24],0.38%
same,% binding,[25],31.7%
same,% binding,[26],32.9%
